Laboratory results: PMC7955032, “The amyloid structure of mouse RIPK3 (receptor interacting protein kinase 3) in cell necroptosis” (Nature Communications, 2021)
Residue numbers refer to the chain shown, from its start. In names and notes the source's numbering stands.

B1: mouse RIPK3 409-486 Q449D (domain or fragment, UniProt Q9QZL0 409-486, looked up)
chain: GPHPQRNQGDGRHGTPWYPWTPPNPMTGPPALVFNNCSEVDIGNYNSLVAPPRTTASSSAKYDQAQFGRGRGWQPFHK
notes: RIPK3, mouse, residues 409-486, same construction as the SSNMR sample, with Q449D; Same construct as m1 with one substitution; source: E. coli Transetta (DE3), purified (Ni-NTA, reverse phase HPLC)
B2: mouse RIPK3 409-486 L456D (domain or fragment, UniProt Q9QZL0 409-486, looked up)
chain: B1 chain with D41Q, L48D
notes: RIPK3, mouse, residues 409-486, same construction as the SSNMR sample, with L456D; Same construct as m1 with one substitution; source: E. coli Transetta (DE3), purified (Ni-NTA, reverse phase HPLC)
B3: mouse RIPK3 409-486 F442D (domain or fragment, UniProt Q9QZL0 409-486, looked up)
chain: B1 chain with F34D, D41Q
notes: RIPK3, mouse, residues 409-486, same construction as the SSNMR sample, with F442D; Same construct as m1 with one substitution; source: E. coli Transetta (DE3), purified (Ni-NTA, reverse phase HPLC)

Key:
[1] = biological target: the molecule itself; experiment: solid-state NMR; MAS SSNMR of isotope-labelled fibrils, 700 MHz, 303 K, 15 kHz; structure calculated with Xplor-NIH for 5 copies of residues 441-460; intermolecular contacts from [2-13C]-glycerol labelled sample and from a 1:1 mix of 15N- and 13C-labelled protein
[2] = biological target: the molecule itself; experiment: thioflavin T fluorescence of fibril growth; 2 mM protein in 6 M GudHCl diluted to 20 µM in 10 mM PB buffer pH 7.4, 50 µM ThT, room temperature, about 4 h

| Protein | binding result [1] | binding result [2] |
| --- | --- | --- |
| B1 | binds |  |
| B2 | binds |  |
| B3 |  | binds |
